# Measurements reported in paper PMC12710314.
# System: T1, LigR (Novosphingobium aromaticivorans DSM 12444), ORF:c1f1f590
# T1 sequence: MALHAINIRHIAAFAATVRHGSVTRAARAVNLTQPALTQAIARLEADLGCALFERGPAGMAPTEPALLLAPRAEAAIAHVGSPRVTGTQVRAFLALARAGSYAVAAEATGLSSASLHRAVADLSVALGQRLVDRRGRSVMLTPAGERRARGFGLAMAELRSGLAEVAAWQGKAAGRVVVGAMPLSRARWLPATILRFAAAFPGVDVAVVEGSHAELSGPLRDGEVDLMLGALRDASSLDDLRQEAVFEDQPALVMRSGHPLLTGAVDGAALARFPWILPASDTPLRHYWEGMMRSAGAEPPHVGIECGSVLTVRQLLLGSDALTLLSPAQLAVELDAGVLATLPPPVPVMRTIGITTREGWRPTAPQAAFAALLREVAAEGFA
# Assay: EMSA
# Conditions: EMSA: 20 nM DNA, 50 mM Tris-HCl, 20 mM HEPES, 1 mM EDTA, 1 mM DTT, 100 mM NaCl, 10% glycerol, pH not stated, room temperature 30 min, gel at 4 C; DNase I …
row,Sequence,binding
1,CAAAGGTCGACCCGGCCTCACCGAAGCCGATCAGGGCGATTGTGAACTCAGGAACGCTCTCCATGGCAGCGGTCCTGCGTCGGCCGCGCCAAAGGAACAAATGCAAACATCGCCCAAGGTATAAATTTATGCAAAGCCTTCTGCGGCCACTTCGCGCAGGAGGGCCGCGAAGGCCGCCTGCGGCGCGGTCGGCCGCCAAC (double strand) [SARO_RS14280 promoter EMSA fragment],binds
2,GCCTTCTGCTTCTCGCGCCACTCGTCGTGCGCCTTCGGCAGCACGGTGTAGTGACCGTGGCAGTCGATGATCATGGTCATGCGACTTCAGTCCTCTCAAGTTTGAACTCTATGGTCTTGCCCGCCTGCTCGCGCTGGCGCCTCACCGTCCCGCCGGTCATCACCGGCTCGACGCCCAGCGATTCCAGCGTCTTGGCTGAC (double strand) [ligJ upstream EMSA fragment],no binding
3,ATGCCCAGGCCGATGCCGCTGGCGCCGCCCGTCACGAAAGCCGTCTTGCCCGGCAGATTCTGCATCGATCCTCTCCTTTGGTGCCTTGCCGGCAGCCATCGACCGGCGCCGGGAATCATTTTTCGCCTTTTGTATTCACCAGCGAGGAATTGTATGCAAGACTAACAATATTGCTGCTTCGACAAGGCCCGCCGAAATGGGTCGCCGCAGCGGGA (double strand) [ligN upstream EMSA fragment],no binding
4,CGATCTGAAGTGCTCAACGTGCAAAGCCTGCACAAAATGACAGGTCGTGCCGGCATCTCAATCGCCTGTTGCTTCCCCTTCTGCTGATTGCTATAAATCATAACAGATTGGGAGAGAGTCATGCAGTTTGAACGCATCAATCCGATGACCGGCGCCGTCGCCTCGCAGGCAGAGGCCATGAAAGCGTCGGACATTCCTTC (double strand) [ligV upstream EMSA fragment],no binding
5,GGACGACGATACCCGACATTTCCGGCTCCCGATGAAAGATCTTCGCGCGTTCCATGGAACTGCGGACCGCAGGGAACCAATGCATTGTTTGCCCCGGCCCATAAGGAAATGCTAAGTGATCAGGCATGGCCCTGCACGCGATCAACATCAGGCACATCGCCGCCTTCGCCGCAACGGTGCGCCACGGCAGCGTGACGCGG (double strand) [ligK promoter EMSA fragment],binds
